Data: the supplement of paper PMC5998384

What was measured:
HeLa Kyoto [1] = assay: thermal stability score vs G1/S (z-score of summed log2 fold changes over temperatures); higher = more thermally stable than in G1/S
HeLa Kyoto [2] = assay: solubility change mitosis vs G1/S (difference of NP-40 vs SDS log2 ratios) (log2 ratio difference); higher = more soluble in mitosis
HeLa Kyoto [3] = assay: solubility in G1/S (NP-40 vs SDS abundance) (log2 ratio); higher = more soluble; details: cell cycle stage: G1/S
HeLa Kyoto [4] = assay: melting temperature (median over replicates), in situ; higher = more thermally stable
[5] = cell cycle stage: early G1 (4.5 h after nocodazole release)
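Throughout, for melting temperature (median over replicates), in situ: HeLa Kyoto cells synchronized by double thymidine or nocodazole block, proteins quantified by TMT10plex mass spectrometry, three independent biological replicates.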
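Throughout, for solubility change mitosis vs G1/S (difference of NP-40 vs SDS log2 ratios): synchronized HeLa Kyoto cells (double thymidine block for G1/S, nocodazole release for mitosis), protein amounts in NP-40 versus SDS lysates quantified by mass spectrometry, three biological replicates.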
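Throughout, for solubility in G1/S (NP-40 vs SDS abundance): HeLa Kyoto cells arrested at G1/S by double thymidine block, proteins quantified by TMT10plex mass spectrometry in mild NP-40 versus SDS extracts, three biological replicates.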
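Throughout, for thermal stability score vs G1/S (z-score of summed log2 fold changes over temperatures): synchronized HeLa Kyoto cells, proteins quantified by TMT10plex mass spectrometry, three biological replicates, mitosis taken 0.5 h after nocodazole release, G1/S directly after double thymidine block.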

CREBBP, sequence (chain, as listed by the source): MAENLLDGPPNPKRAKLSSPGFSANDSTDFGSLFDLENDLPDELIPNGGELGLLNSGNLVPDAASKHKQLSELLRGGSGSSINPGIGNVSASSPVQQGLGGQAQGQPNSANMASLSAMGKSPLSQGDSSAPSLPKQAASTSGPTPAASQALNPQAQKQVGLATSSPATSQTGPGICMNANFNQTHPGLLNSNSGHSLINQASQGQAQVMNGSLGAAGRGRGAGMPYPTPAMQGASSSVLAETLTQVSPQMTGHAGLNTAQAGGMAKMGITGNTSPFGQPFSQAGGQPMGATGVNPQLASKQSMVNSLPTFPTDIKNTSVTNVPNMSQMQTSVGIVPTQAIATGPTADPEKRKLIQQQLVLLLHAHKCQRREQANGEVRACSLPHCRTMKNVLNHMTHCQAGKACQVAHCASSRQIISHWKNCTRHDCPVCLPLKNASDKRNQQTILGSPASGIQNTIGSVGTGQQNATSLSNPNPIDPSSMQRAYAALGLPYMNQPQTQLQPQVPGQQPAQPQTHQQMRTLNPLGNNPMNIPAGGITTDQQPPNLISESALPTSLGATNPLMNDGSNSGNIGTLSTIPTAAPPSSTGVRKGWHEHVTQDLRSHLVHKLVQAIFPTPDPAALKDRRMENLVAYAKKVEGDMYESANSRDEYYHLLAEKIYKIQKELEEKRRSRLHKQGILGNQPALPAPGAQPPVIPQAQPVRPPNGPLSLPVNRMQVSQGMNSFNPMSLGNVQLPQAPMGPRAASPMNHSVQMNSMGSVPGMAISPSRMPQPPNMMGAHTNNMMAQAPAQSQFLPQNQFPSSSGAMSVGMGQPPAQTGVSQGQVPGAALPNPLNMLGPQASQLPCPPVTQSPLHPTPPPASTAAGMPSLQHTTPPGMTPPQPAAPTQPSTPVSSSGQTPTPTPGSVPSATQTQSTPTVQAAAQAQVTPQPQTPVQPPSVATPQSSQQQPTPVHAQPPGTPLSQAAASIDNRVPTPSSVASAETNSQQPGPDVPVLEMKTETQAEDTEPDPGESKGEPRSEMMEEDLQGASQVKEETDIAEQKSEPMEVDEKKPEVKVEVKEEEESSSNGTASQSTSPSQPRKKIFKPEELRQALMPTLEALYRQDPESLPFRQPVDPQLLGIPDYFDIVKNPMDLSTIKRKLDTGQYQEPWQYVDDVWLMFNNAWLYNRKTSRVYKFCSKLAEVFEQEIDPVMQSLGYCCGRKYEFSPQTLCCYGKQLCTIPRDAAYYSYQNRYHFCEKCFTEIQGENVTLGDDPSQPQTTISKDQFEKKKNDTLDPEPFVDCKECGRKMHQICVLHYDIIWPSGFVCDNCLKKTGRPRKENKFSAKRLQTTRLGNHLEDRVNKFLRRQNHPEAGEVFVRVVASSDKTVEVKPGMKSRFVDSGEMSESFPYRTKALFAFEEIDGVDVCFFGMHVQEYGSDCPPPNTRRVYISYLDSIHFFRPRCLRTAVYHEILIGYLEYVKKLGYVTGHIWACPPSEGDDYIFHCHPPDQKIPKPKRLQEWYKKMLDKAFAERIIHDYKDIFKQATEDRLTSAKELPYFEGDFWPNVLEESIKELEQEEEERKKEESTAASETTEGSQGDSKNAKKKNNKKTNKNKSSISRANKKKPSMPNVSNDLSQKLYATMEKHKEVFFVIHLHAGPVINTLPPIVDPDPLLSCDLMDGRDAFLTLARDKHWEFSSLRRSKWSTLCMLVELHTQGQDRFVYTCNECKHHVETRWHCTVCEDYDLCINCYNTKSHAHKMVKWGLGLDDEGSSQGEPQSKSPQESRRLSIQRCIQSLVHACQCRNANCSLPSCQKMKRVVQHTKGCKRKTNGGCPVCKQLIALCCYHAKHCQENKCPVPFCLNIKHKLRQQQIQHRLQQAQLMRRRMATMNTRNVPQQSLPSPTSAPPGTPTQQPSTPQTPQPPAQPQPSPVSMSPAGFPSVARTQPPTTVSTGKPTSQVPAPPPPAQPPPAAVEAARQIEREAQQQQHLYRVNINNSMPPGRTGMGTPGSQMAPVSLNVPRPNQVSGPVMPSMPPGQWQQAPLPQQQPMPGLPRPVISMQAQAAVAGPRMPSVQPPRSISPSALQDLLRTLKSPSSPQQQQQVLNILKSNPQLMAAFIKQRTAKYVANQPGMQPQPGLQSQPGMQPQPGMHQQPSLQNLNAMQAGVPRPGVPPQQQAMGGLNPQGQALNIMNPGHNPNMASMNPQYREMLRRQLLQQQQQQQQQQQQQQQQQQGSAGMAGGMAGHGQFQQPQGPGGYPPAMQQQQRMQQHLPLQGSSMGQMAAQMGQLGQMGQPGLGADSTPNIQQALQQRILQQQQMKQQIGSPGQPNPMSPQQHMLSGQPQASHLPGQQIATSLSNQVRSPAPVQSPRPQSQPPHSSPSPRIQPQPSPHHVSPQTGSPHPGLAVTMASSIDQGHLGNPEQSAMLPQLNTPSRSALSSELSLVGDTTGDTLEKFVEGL

| Substance | thermal stability score (HeLa Kyoto [1]; [5]) | thermal stability score (HeLa Kyoto [1]; cell cycle stage: mitosis) | solubility change mitosis (log2) (HeLa Kyoto [2]) | solubility in G1/S (log2) (HeLa Kyoto [3]) | melting temperature (HeLa Kyoto [4]; cell cycle stage: G1/S) [°C] | melting temperature (HeLa Kyoto [4]; cell cycle stage: mitosis) [°C] |
| --- | --- | --- | --- | --- | --- | --- |
| MAMDSSLQARLFPGLAIKIQRSNGLIHSANVRTVNLEKSCVSVEWAEGGATKGKEIDFDDVAAINPELLQLLPLHPKDNLPLQENVTIQKQKRRSVNSKIPAPKESLRSRSTRMSTVSELRITAQENDMEVELPAAANSRKQFSVPPAPTRPSCPAVAEIPLRMVSEEMEEQVHSIRGSSSANPVNSVRRKSCLVKEVEKMKNKREEKKAQNSEMRMKRAQEYDSSFPNWEFARMIKEFRATLECHPLTMTDPIEEHRICVCVRKRPLNKQELAKKEIDVISIPSKCLLLVHEPKLKVDLTKYLENQAFCFDFAFDETASNEVVYRFTARPLVQTIFEGGKATCFAYGQTGSGKTHTMGGDLSGKAQNASKGIYAMASRDVFLLKNQPCYRKLGLEVYVTFFEIYNGKLFDLLNKKAKLRVLEDGKQQVQVVGLQEHLVNSADDVIKMIDMGSACRTSGQTFANSNSSRSHACFQIILRAKGRMHGKFSLVDLAGNERGADTSSADRQTRMEGAEINKSLLALKECIRALGQNKAHTPFRESKLTQVLRDSFIGENSRTCMIATISPGISSCEYTLNTLRYADRVKELSPHSGPSGEQLIQMETEEMEACSNGALIPGNLSKEEEELSSQMSSFNEAMTQIRELEEKAMEELKEIIQQGPDWLELSEMTEQPDYDLETFVNKAESALAQQAKHFSALRDVIKALRLAMQLEEQASRQISSKKRPQ [KIF2C] | 2.01 | 3.27 | -0.0369 | -0.0225 | 48.6 | 49.5 |
| MIAHKQKKTKKKRAWASGQLSTDITTSEMGLKSLSSNSIFDPDYIKELVNDIRKFSHMLLYLKEAIFSDCFKEVIHIRLEELLRVLKSIMNKHQNLNSVDLQNAAEMLTAKVKAVNFTEVNEENKNDLFQEVFSSIETLAFTFGNILTNFLMGDVGNDSLLRLPVSRETKSFENVSVESVDSSSEKGNFSPLELDNVLLKNTDSIELALSYAKTWSKYTKNIVSWVEKKLNLELESTRNMVKLAEATRTNIGIQEFMPLQSLFTNALLNDIESSHLLQQTIAALQANKFVQPLLGRKNEMEKQRKEIKELWKQEQNKMLEAENALKKAKLLCMQRQDEYEKAKSSMFRAEEEHLSSSGGLAKNLNKQLEKKRRLEEEALQKVEEANELYKVCVTNVEERRNDLENTKREILAQLRTLVFQCDLTLKAVTVNLFHMQHLQAASLADSLQSLCDSAKLYDPGQEYSEFVKATNSTEEEKVDGNVNKHLNSSQPSGFGPANSLEDVVRLPDSSNKIEEDRCSNSADITGPSFIRSWTFGMFSDSESTGGSSESRSLDSESISPGDFHRKLPRTPSSGTMSSADDLDEREPPSPSETGPNSLGTFKKTLMSKAALTHKFRKLRSPTKCRDCEGIVVFQGVECEECLLVCHRKCLENLVIICGHQKLPGKIHLFGAEFTQVAKKEPDGIPFILKICASEIENRALCLQGIYRVCGNKIKTEKLCQALENGMHLVDISEFSSHDICDVLKLYLRQLPEPFILFRLYKEFIDLAKEIQHVNEEQETKKNSLEDKKWPNMCIEINRILLKSKDLLRQLPASNFNSLHFLIVHLKRVVDHAEENKMNSKNLGVIFGPSLIRPRPTTAPITISSLAEYSNQARLVEFLITYSQKIFDGSLQPQDVMCSIGVVDQGCFPKPLLSPEERDIERSMKSLFFSSKEDIHTSESESKIFERATSFEESERKQNALGKCDACLSDKAQLLLDQEAESASQKIEDGKTPKPLSLKSDRSTNNVERHTPRTKIRPVSLPVDRLLLASPPNERNGRNMGNVNLDKFCKNPAFEGVNRKDAATTVCSKFNGFDQQTLQKIQDKQYEQNSLTAKTTMIMPSALQEKGVTTSLQISGDHSINATQPSKPYAEPVRSVREASERRSSDSYPLAPVRAPRTLQPQHWTTFYKPHAPIISIRGNEEKPASPSAAVPPGTDHDPHGLVVKSMPDPDKASACPGQATGQPKEDSEELGLPDVNPMCQRPRLKRMQQFEDLEGEIPQFV [ARHGAP29] | 1 | 1.36 | -0.0634 | -0.185 | 50.5 | 51.1 |
| MSRYLRPPNTSLFVRNVADDTRSEDLRREFGRYGPIVDVYVPLDFYTRRPRGFAYVQFEDVRDAEDALHNLDRKWICGRQIEIQFAQGDRKTPNQMKAKEGRNVYSSSRYDDYDRYRRSRSRSYERRRSRSRSFDYNYRRSYSPRNSRPTGRPRRSRSHSDNDRFKHRNRSFSRSKSNSRSRSKSQPKKEMKAKSRSRSASHTKTRGTSKTDSKTHYKSGSRYEKESRKKEPPRSKSQSRSQSRSRSKSRSRSWTSPKSSGH [SRSF10] | 0.817 | -0.653 | 0.534 | -0.696 | 49.7 | 50.2 |
| CREBBP | -0.935 | -0.841 | 0.0153 | -0.265 | 52 | 53.2 |
| MDHYDSQQTNDYMQPEEDWDRDLLLDPAWEKQQRKTFTAWCNSHLRKAGTQIENIEEDFRDGLKLMLLLEVISGERLAKPERGKMRVHKISNVNKALDFIASKGVKLVSIGAEEIVDGNVKMTLGMIWTIILRFAIQDISVEETSAKEGLLLWCQRKTAPYKNVNIQNFHISWKDGLGFCALIHRHRPELIDYGKLRKDDPLTNLNTAFDVAEKYLDIPKMLDAEDIVGTARPDEKAIMTYVSSFYHAFSGAQKAETAANRICKVLAVNQENEQLMEDYEKLASDLLEWIRRTIPWLENRVPENTMHAMQQKLEDFRDYRRLHKPPKVQEKCQLEINFNTLQTKLRLSNRPAFMPSEGRMVSDINNAWGCLEQVEKGYEEWLLNEIRRLERLDHLAEKFRQKASIHEAWTDGKEAMLRQKDYETATLSEIKALLKKHEAFESDLAAHQDRVEQIAAIAQELNELDYYDSPSVNARCQKICDQWDNLGALTQKRREALERTEKLLETIDQLYLEYAKRAAPFNNWMEGAMEDLQDTFIVHTIEEIQGLTTAHEQFKATLPDADKERLAILGIHNEVSKIVQTYHVNMAGTNPYTTITPQEINGKWDHVRQLVPRRDQALTEEHARQQHNERLRKQFGAQANVIGPWIQTKMEEIGRISIEMHGTLEDQLSHLRQYEKSIVNYKPKIDQLEGDHQLIQEALIFDNKHTNYTMEHIRVGWEQLLTTIARTINEVENQILTRDAKGISQEQMNEFRASFNHFDRDHSGTLGPEEFKACLISLGYDIGNDPQGEAEFARIMSIVDPNRLGVVTFQAFIDFMSRETADTDTADQVMASFKILAGDKNYITMDELRRELPPDQAEYCIARMAPYTGPDSVPGALDYMSFSTALYGESDL [ACTN1] | -0.623 | -1.86 | 0.09 | -0.1 | 58.3 | 55.9 |
| MTELQQDVEDTKPAKVLGKRESKLGSAHSEAENGVEEKKKACRSPTAQSPTPSVEADSPDQKKIISLWSKSSFDGASLASDKNDCKTESKNDPKTERKKSSSSSQYKANMHFHKLFLSVPTEEPLKQSFTCALQKEILYQGKLFVSENWICFHSKVFGKDTKISIPAFSVTLIKKTKTALLVPNALIIATVTDRYIFVSLLSRDSTYKLLKSVCGHLENTSVGNSPNPSSAENSFRADRPSSLPLDFNDEFSDLDGVVQQRRQDMEGYSSSGSQTPESENSRDFHATESQTVLNVSKGEAKPTRADAHVNRVPEGKAKSLPVQGLSETVGILHKVKSQKCPMLHHILIFYAIVVCALIISTFYMRYRINTLEEQLGLLTSIVDTHNTEQAAPSGLRSQVQFNVEVLCQELTANIVKLEKIQNNLQKLLENGD [GRAMD3] | -0.258 | 1.75 | -0.244 | 0.0879 | 49.3 | 51 |
| MDYRRLLMSRVVPGQFDDADSSDSENRDLKTVKEKDDILFEDLQDNVNENGEGEIEDEEEEGYDDDDDDWDWDEGVGKLAKGYVWNGGSNPQANRQTSDSSSAKMSTPADKVLRKFENKINLDKLNVTDSVINKVTEKSRQKEADMYRIKDKADRATVEQVLDPRTRMILFKMLTRGIITEINGCISTGKEANVYHASTANGESRAIKIYKTSILVFKDRDKYVSGEFRFRHGYCKGNPRKMVKTWAEKEMRNLIRLNTAEIPCPEPIMLRSHVLVMSFIGKDDMPAPLLKNVQLSESKARELYLQVIQYMRRMYQDARLVHADLSEFNMLYHGGGVYIIDVSQSVEHDHPHALEFLRKDCANVNDFFMRHSVAVMTVRELFEFVTDPSITHENMDAYLSKAMEIASQRTKEERSSQDHVDEEVFKRAYIPRTLNEVKNYERDMDIIMKLKEEDMAMNAQQDNILYQTVTGLKKDLSGVQKVPALLENQVEERTCSDSEDIGSSECSDTDSEEQGDHARPKKHTTDPDIDKKERKKMVKEAQREKRKNKIPKHVKKRKEKTAKTKKGK [RIOK1] | 1.87 | 1.28 | 0.0777 | -0.18 | 52.3 | 54.8 |
| MLGVRCLLRSVRFCSSAPFPKHKPSAKLSVRDALGAQNASGERIKIQGWIRSVRSQKEVLFLHVNDGSSLESLQVVADSGLDSRELNFGSSVEVQGQLIKSPSKRQNVELKAEKIKVIGNCDAKDFPIKYKERHPLEYLRQYPHFRCRTNVLGSILRIRSEATAAIHSFFKDSGFVHIHTPIITSNDSEGAGELFQLEPSGKLKVPEENFFNVPAFLTVSGQLHLEVMSGAFTQVFTFGPTFRAENSQSRRHLAEFYMIEAEISFVDSLQDLMQVIEELFKATTMMVLSKCPEDVELCHKFIAPGQKDRLEHMLKNNFLIISYTEAVEILKQASQNFTFTPEWGADLRTEHEKYLVKHCGNIPVFVINYPLTLKPFYMRDNEDGPQHTVAAVDLLVPGVGELFGGGLREERYHFLEERLARSGLTEVYQWYLDLRRFGSVPHGGFGMGFERYLQCILGVDNIKDVIPFPRFPHSCLL [NARS2] | -0.169 | 1.1 | -0.147 | -0.141 | 49.7 | 49.8 |
| MRSLLLLSAFCLLEAALAAEVKKPAAAAAPGTAEKLSPKAATLAERSAGLAFSLYQAMAKDQAVENILVSPVVVASSLGLVSLGGKATTASQAKAVLSAEQLRDEEVHAGLGELLRSLSNSTARNVTWKLGSRLYGPSSVSFADDFVRSSKQHYNCEHSKINFRDKRSALQSINEWAAQTTDGKLPEVTKDVERTDGALLVNAMFFKPHWDEKFHHKMVDNRGFMVTRSYTVGVMMMHRTGLYNYYDDEKEKLQIVEMPLAHKLSSLIILMPHHVEPLERLEKLLTKEQLKIWMGKMQKKAVAISLPKGVVEVTHDLQKHLAGLGLTEAIDKNKADLSRMSGKKDLYLASVFHATAFELDTDGNPFDQDIYGREELRSPKLFYADHPFIFLVRDTQSGSLLFIGRLVRPKGDKMRDEL [SERPINH1] | 4.47 | 4.77 | -0.0819 | 0.232 | 54.2 | 55.2 |
| MAPVGGGGRPVGGPARGRLLLAAPVLLVLLWALGARGQGSPQQGTIVGMRLASCNKSCGTNPDGIIFVSEGSTVNLRLYGYSLGNISSNLISFTEVDDAETLHKSTSCLELTKDLVVQQLVNVSRGNTSGVLVVLTKFLRRSESMKLYALCTRAQPDGPWLKWTDKDSLLFMVEEPGRFLPLWLHILLITVLLVLSGIFSGLNLGLMALDPMELRIVQNCGTEKERRYARKIEPIRRKGNYLLCSLLLGNVLVNTSLTILLDNLIGSGLMAVASSTIGIVIFGEILPQALCSRHGLAVGANTILLTKFFMLLTFPLSFPISKLLDFFLGQEIRTVYNREKLMEMLKVTEPYNDLVKEELNMIQGALELRTKTVEDIMTQLQDCFMIRSDAILDFNTMSEIMESGYTRIPVFEDEQSNIVDILYVKDLAFVDPDDCTPLKTITRFYNHPVHFVFHDTKLDAMLEEFKKGKSHLAIVQKVNNEGEGDPFYEVLGLVTLEDVIEEIIKSEILDESDMYTDNRSRKRVSEKNKRDFSAFKDADNELKVKISPQLLLAAHRFLATEVSQFSPSLISEKILLRLLKYPDVIQELKFDEHNKYYARHYLYTRNKPADYFILILQGKVEVEAGKENMKFETGAFSYYGTMALTSVPSDRSPAHPTPLSRSASLSYPDRTDVSTAATLAGSSNQFGSSVLGQYISDFSVRALVDLQYIKITRQQYQNGLLASRMENSPQFPIDGCTTHMENLAEKSELPVVDETTTLLNERNSLLHKASHENAI [CNNM4] | -0.56 | -0.485 | -0.0459 | -0.12 | 51.7 | 52.1 |
